Measurements reported in US20260285993 (published 2026).

B1: HP-PR01B01 (antibody, V domains shown)
VH: EVHLVESGPDLVKPSQSLSLTCTVTGYSITSGYNWHWIRQFPGNKLEWMGYIHYSGSTKYDPSLKSRISFTRDTSRNQFFLQLNSVTTEDRATYYCARSEAGGYSWFAYWGQGTLVTVSA
VL: DIVMTQSPAIMSASPGEKVTMACSASSSVNYMHWYQQKSGTSPKRWIYDTSKLASGVPARFSGSGSGTSYSLTISSMEAEDAATYYCQQWSSNPLTFGAGTKLELK
B2: H-PR-B06 (antibody, V domains shown)
VH: DVKLVESGGGLVKPGGSLKLACAASGFTFSSYTMSWVRQTPEKRLEWVATISSGGSYTYYPDSVKGRFTISRDNAKNTLYLQLSSLKSEDTAMYYCTRDRYYSTTPDWYFDVWGAGTTVTVSS
VL: DIVLTQSPATLSVTPGDSVSLSCRATQIIFNNLHWYQQKSHESPRLLITYTSQSISGIPSRFSGSGSGTDFTLTINSVETEDFGMYFCQQSNTWPRTFGGGTKLEIK
B3: HP-PR02H02 (antibody, V domains shown)
VH: EVMLVESGGGLVKPGGSLKLACAASGFTFSSYTMSWVRQTPEKRLEWVATISSGGSYTYYPDSVKGRFTISRDNAKNTLYLQLSSLKSEDTAMYYCTRDRYYSTTPDWYFDVWGAGTTLTVSS
VL: DIVITQSPATLSVTPGDSVSLSCRATQIIFNNLHWYQQKSHESPRLLITYTSQSISGIPSRFSGSGSGTDFTLTINSVETEDFGMYFCQQSNTWPRTFGGGTKLEIK

Biological target: T1, cynomolgus PRLR ECD (cynomolgus monkey)
T1 chain: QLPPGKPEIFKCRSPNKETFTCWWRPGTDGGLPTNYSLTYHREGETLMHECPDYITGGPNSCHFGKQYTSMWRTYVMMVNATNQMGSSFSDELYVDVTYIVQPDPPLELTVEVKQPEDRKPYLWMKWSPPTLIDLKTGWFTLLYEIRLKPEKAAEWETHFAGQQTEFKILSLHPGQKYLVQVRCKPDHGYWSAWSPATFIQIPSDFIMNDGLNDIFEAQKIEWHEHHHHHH
Experiment: ELISA

Binder | binding result
B1 | no binding
B2 | no binding
B3 | no binding
